Laboratory results published in patent US10668049B2, “Methods of treating cognitive decline with transforming growth factor beta inhibitors” (The Regents of the University of California, priority 2008, dated 2020).

Assays:
[1] = target: T1, astrocyte specific glutamate transporter, SLC1A2 (Rattus norvegicus, UniProt P31596); assay: Whole cell patch recording of NMDA-mediated EPSCs in cortical pyramidal neurons; assay type: cell-based
T1 construct: In vitro intracellular recordings were obtained from pyramidal neurons (layer 2-3) 23-28 h following the in vivo treatment; from tissue; host or cells: acute rat neocortical slices (astrocytic transporter; recordings from layer 2-3 pyramidal neurons)
Protocol: In vitro intracellular recordings were obtained from pyramidal neurons (layer 2-3) 23-28 h following the in vivo treatment with albumin or from control rats. Currents were recorded using the whole cell patch configuration, as described previously (Pavlovsky et al., 2003). In brief, glass pipettes were pulled from capillaries using a vertical puller (Narashige, Greenvale, N.Y.) and filled with a solution comprising (in mM): 150 CsCl, 1 MgCl2, 10 HEPES, 4 Na2ATP, 0.1 CaCl2, and 1.1 mM EGTA, pH adjusted to 7.2 with a final osmolarity of 290-310 mOsm. Cells were visualized using infrared differential interference phase contrast video-microscopy. Recordings were performed using AxoPatch 700B (Axon Instruments, Foster City, Calif.), digitized at 10 kHz and recorded using pClamp 9.2 (Axon Instruments, Foster City, Calif.). Patch pipette's resistance was 4-5 MΩ. Series resistance was not electronically compensated; however, cells in which series resistance varied by more than 25% were excluded from the analysis. Stimulation protocols were started at least 5 min following impalement to allow intracellular dialysis with the pipette solution. Excitatory post-synaptic currents (EPSCs) were evoked—using a bipolar stimulating electrode positioned <200 μm from the recorded cell—at 75% of the intensity producing maximal EPSCs. N-methyl-D-aspartic acid (NMDA) currents were recorded in the presence of blockers of α-amino-3-hydroxy-5-methyl-4-isoxazole-propionic acid (AMPA)/kainate (i.e., 30 μM CNQX) and of gamma-aminobutyric acid A (GABAA) receptors (i.e., 10 μM bicuculine methiodide). Cells were voltage clamped to +40 mV to alleviate NMDA receptor blockade and inactivate fast Na^+ currents. In some experiments, dihydrokainic acid (DHK, Tocris, Bristol, UK), 100 μM, was added to the extracellular solution to selectively block the astrocyte specific glutamate transporter, SLC1A2 (see Arriza et al., 1994).
To confirm that the transcriptional changes induced by albumin were associated with altered cellular functions, the clearance of extracellular glutamate and potassium in cortical slices 24 hours following albumin treatment in vivo was investigated. To measure synaptic glutamate levels during neuronal activation, the slowly inactivating (Lester et al., 1990) NMDA currents in cortical neurons were recorded by using the whole-cell patch configuration (in the presence of non-NMDA glutamate and GABA receptor blockers, see Methods). Cells were clamped at +40 mV to prevent a potential confounding effect of post-synaptic depolarization due to the accumulation of synaptic [K^+]o. […] Synaptic glutamate elicited by 50 extracellular stimulations at 2, 5, 10, 20, 50 and 100 Hz before and after adding the astrocytic SLC1A2 specific inhibitor, DHK was measured. In neurons from control animals, DHK had no effect on single EPSCs or EPSCs elicited at low stimulation frequencies (<20 Hz). […] The same experiments were then repeated 24 h following cortical application of albumin (i.e. during epileptogenesis). In contrast to the control experiments, DHK had no effect on EPSC amplitude in treated slices (FIG. 13b-c, right), supporting reduced expression of the astrocytic transporter SLC1A2.

TGF-β signaling pathway = assay: Microarray and real-time RT-PCR gene expression after in vivo albumin with or without TGF-βR blockers; design: species or system rat; details: albumin alone, 24 hours
Protocol: All experimental procedures were approved by the ethical committees dealing with experiments on animals at Charité University Medicine, Berlin and Ben-Gurion University of the Negev, Beer-Sheva. The in vivo experiments were performed as previously described (ivens et al., 2007; Seiffert et al., 2004). Adult male Wistar rats were treated with artificial cerebrospinal fluid (aCSF, composition in mM: 129 NaCl, 21 NaHCO3, 1.25 NaH2PO4, 1.8 MgSO4, 1.6 CaCl2, 3 KCl, 10 glucose) supplemented with deoxycholic acid (DOC, 2 mM, Sigma-Aldrich, Steinheim, Germany), bovine serum albumin (BSA, 0.1 mM. Merck, Darmstadt, Germany) corresponding to 25% of serum albumin concentration, or with TGF-β1 (10 ng/ml, Peprotech, Rocky Hill, N.J.). Sham-operated animals (perfused with aCSF) served as controls. […]
Total RNA was isolated using the TRIzol reagent (Invitrogen. Carlsbad, Calif.) and prepared using the Affymetrix GeneChip one-cycle target labeling kit (Affymetrix, Santa Clara, Calif.). […] Pairwise Pearson correlation coefficients for the three treatments were determined with Excel (Microsoft Corp., Richmond, Wash.). […]
mRNA expression levels were determined by quantitative reverse transcriptase-PCR by real-time kinetic analysis with an iQ5 detection system (Bio-Rad, Hercules, Calif.). Real-time PCR data were analyzed using the PCR Miner program (Zhao and Fernald, 2005). […]

[2] = 24 h following albumin treatment in vivo, clamped at +40 mV

T1 sequence (P31596 whole entry): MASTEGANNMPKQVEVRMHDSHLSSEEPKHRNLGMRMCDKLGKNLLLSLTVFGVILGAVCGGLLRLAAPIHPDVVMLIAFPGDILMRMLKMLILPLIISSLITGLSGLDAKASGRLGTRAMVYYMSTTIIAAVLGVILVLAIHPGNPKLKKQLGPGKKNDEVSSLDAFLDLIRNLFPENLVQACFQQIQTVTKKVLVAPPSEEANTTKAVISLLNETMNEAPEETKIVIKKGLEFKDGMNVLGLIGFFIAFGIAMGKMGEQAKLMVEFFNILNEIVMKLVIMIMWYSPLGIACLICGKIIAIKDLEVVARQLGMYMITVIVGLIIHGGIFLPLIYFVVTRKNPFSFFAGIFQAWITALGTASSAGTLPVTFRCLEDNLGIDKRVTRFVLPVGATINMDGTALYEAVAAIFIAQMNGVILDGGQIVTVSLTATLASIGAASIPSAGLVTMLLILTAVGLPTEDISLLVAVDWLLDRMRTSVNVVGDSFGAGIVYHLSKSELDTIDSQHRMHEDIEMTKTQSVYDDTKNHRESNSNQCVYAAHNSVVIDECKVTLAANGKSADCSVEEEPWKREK

Mean single EPSC amplitude [1, 2]: 505±100 pA
Mean single EPSC rise-time [1, 2]: 14.5 ± 0.5 ms
EPSC amplitude on repetitive stimulation, compared to controls ([1]; 24 h following cortical application of albumin): stronger depression
Substance: albumin: bovine serum albumin, used to induce epileptogenesis
NF-kappaB cascade, Jak-Stat cascade, and MAPKKK cascade expression (TGF-β signaling pathway): upregulated
